Results reported in patent US20240358813A1.
Where two headings read alike, the source gives them in different places.

Tests used:
[1] = target: gp42 wild-type (1-223) (Epstein-Barr virus) (UniProt P03205); assay: flow cytometry, stable CHO cells kept in 10 µg/ml puromycin, mAb at 1:200, goat anti-mouse IgG Alexa Fluor 488
[2] = target: gp350-F: EBV gp350 (1-864) ectodomain fused to the Newcastle disease virus fusion protein (NDV-F) tr (Epstein-Barr virus; Newcastle disease virus) (UniProt P03200)
[3] = target: gp350-F: EBV gp350 (1-864) ectodomain fused to the Newcastle disease virus fusion protein (NDV-F) tr (Epstein-Barr virus; Newcastle disease virus) (UniProt P03200); remark: listed apart in the source
[4] = target: gp350-F: EBV gp350 (1-864) ectodomain fused to the Newcastle disease virus fusion protein (NDV-F) tr (Epstein-Barr virus; Newcastle disease virus) (UniProt P03200); assay: flow cytometry, […], mAb at 1:200, […]

Chain of UniProt P03200 (P03200 1-864): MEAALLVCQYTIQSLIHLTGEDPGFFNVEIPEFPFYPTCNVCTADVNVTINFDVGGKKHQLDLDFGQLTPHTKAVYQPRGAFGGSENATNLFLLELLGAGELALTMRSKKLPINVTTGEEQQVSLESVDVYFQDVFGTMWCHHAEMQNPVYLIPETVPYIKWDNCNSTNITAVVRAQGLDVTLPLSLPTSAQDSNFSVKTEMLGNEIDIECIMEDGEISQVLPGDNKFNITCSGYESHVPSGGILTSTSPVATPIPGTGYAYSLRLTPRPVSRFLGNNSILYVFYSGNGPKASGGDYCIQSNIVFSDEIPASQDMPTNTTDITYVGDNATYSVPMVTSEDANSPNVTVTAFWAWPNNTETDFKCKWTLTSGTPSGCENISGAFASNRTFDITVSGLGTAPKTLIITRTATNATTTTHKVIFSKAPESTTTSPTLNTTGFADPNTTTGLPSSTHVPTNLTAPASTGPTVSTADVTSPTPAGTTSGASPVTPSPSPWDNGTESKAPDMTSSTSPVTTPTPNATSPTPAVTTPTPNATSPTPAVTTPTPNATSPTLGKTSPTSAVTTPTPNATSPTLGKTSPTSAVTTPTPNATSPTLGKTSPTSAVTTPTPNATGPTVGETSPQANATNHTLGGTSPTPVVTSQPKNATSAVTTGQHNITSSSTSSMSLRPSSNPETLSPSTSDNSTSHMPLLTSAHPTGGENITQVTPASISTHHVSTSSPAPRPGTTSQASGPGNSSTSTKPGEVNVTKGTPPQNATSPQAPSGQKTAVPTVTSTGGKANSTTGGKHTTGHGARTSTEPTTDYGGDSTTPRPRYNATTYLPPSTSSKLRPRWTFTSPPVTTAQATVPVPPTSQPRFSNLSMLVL
Chain of UniProt P03205 (P03205 whole entry, the tested form may be a part): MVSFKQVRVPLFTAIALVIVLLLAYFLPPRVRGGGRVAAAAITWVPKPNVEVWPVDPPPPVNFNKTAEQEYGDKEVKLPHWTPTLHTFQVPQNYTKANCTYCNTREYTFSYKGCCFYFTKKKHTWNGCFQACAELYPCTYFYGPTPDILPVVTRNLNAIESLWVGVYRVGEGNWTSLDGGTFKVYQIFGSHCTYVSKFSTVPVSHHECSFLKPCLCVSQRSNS

For anti-gp42 mAb (F-2-1) (antibody), the percent positive cells [1] was greater than 90%.

anti-gp350 mAb 2L10 (antibody) showed a percent positive cells [2] greater than 90%.

For “anti-gp350 monoclonal antibody (mAb) 72A1”, the percent positive cells [3] was 95% and the percent positive cells [4] was greater than 90%.
